Experimental data reported in article PMC5464678 (The Journal of Physical Chemistry Letters, 2017).

Target: T1, Cnu (UniProt P64467 1-71)
T1 sequence (looked up): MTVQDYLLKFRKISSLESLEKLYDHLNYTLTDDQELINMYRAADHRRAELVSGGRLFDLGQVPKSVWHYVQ
Assay: fluorescence polarisation; tryptophan fluorescence anisotropy of Cnu, titrated with H-NS(1-59) at select temperatures (278 to 310 K); apparent dissociation constants from fits assuming a 1:1 binding equilibrium
Conditions: both partners purified

B1: H-NS_(1–59) (domain or fragment, UniProt P0ACF8 1-59, looked up)
chain: MSEALKILNNIRTLRAQARECTLETLEEMLEKLEVVVNERREEESAAAAEVEERTRKLQ
For B1, the “fold decrease of binding affinity, 310 K against 278 K” value was ~5 fold.
